According to publication PMC9377797, “Hypoxia-induced proteasomal degradation of DBC1 by SIAH2 in breast cancer progression” (eLife, 2022):

Legend:
[1] = target: T1, His-DBC1 (human, UniProt Q8N163 1-923); experiment: pull-down; GST-SIAH2 and His-DBC1 proteins from E. coli incubated in vitro overnight, GST beads for 2 hr at 4°C; blotted with an anti-DBC1 antibody; conditions: both partners purified
T1 construct: Deleted in breast cancer 1 (DBC1, CCAR2), human; also called His-tagged DBC1; source: E. coli BL21, purified
T1 sequence (Q8N163 whole entry): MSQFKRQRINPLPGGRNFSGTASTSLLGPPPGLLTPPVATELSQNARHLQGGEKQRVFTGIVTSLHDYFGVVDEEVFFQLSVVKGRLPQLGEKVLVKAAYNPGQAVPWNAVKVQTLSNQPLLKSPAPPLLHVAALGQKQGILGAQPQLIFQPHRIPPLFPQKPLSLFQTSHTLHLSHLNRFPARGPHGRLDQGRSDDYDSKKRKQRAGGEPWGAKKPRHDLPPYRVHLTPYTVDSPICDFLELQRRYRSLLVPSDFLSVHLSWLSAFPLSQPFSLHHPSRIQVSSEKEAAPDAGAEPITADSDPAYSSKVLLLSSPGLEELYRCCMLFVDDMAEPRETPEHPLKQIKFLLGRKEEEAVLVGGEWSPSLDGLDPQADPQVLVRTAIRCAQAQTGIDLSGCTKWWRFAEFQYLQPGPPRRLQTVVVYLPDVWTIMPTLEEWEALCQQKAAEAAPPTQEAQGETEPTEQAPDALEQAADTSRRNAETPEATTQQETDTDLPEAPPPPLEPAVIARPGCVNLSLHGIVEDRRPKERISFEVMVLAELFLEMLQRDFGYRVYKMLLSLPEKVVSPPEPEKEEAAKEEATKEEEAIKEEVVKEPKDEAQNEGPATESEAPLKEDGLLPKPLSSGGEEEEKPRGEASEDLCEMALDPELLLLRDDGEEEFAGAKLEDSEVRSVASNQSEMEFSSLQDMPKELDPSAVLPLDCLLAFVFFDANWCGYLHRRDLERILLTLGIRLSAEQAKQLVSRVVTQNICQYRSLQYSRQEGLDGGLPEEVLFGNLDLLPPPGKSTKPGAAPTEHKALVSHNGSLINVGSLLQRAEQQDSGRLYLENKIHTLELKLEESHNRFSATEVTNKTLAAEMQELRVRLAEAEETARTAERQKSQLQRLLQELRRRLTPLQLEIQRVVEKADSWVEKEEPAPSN

[2] = target: T2, N-terminal half of His-DBC1 (1–461) (human, UniProt Q8N163 1-461); experiment: as above; conditions: both partners purified
T2 construct: source: bacterially expressed (E. coli)
T2 sequence (Q8N163 1-461): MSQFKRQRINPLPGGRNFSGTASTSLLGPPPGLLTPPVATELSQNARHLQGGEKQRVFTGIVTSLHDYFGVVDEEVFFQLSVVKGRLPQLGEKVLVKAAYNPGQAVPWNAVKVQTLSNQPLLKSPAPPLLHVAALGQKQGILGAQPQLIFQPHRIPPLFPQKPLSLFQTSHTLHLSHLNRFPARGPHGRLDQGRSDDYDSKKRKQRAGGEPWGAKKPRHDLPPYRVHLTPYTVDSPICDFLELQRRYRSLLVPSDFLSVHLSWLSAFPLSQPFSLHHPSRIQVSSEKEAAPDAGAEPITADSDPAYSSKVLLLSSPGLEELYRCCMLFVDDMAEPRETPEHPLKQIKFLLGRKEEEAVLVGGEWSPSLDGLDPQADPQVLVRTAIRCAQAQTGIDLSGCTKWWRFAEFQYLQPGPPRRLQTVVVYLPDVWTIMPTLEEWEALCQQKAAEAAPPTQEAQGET

binding result [1]: binds | binding result [2]: binds
B1: GST-SIAH2 (enzyme, human, UniProt O43255 1-324, looked up)
chain: MSRPSSTGPSANKPCSKQPPPQPQHTPSPAAPPAAATISAAGPGSSAVPAAAAVISGPGGGGGAGPVSPQHHELTSLFECPVCFDYVLPPILQCQAGHLVCNQCRQKLSCCPTCRGALTPSIRNLAMEKVASAVLFPCKYATTGCSLTLHHTEKPEHEDICEYRPYSCPCPGASCKWQGSLEAVMSHLMHAHKSITTLQGEDIVFLATDINLPGAVDWVMMQSCFGHHFMLVLEKQEKYEGHQQFFAIVLLIGTRKQAENFAYRLELNGNRRRLTWEATPRSIHDGVAAAIMNSDCLVFDTAIAHLFADNGNLGINVTISTCCP
notes: E3 ubiquitin ligase SIAH2, human, wild type; also called GST-tagged SIAH2; purified glutathione S-transferase (GST) SIAH2; source: E. coli BL21, purified
